US20120164066A1 (University of Pennsylvania, published 2012)

B1: synthetic CH2-mimic peptide (peptide)
peptide: FPAPLAPGGLYLGG
B2: ALZ (designed binder)
chain: MAFCDGFYACYMDVGGGGGSMASDFLKHCQADHLLDEKGRAQCLLQREMVQSLEQQLVLEKEKLSAMQAHLAGKMALTKASSVASSDKLEHHHHHH
notes: AHNP on the N-terminus of the leucine zipper domain of human FOXP3, with a His-tag; The LZ domain is said to form dimers and tetramers; also called ALZ construct

Assays:
FcγIIIB Fc receptor = target: T1, FcγIIIB Fc receptor (UniProt O75015 17-200); assay: Biacore
T1 construct: The form used in the Biacore experiments is not described; also called FcγIIIB receptor
Experimental: In some cases, antigen-binding protein can interact with an Fc receptor, which may facilitate cell-mediated cytotoxicity. Biacore experiments were conducted to determine whether the antigen-binding protein AHNP-CH2-mimic could bind to the FcγIIIB Fc receptor. […] The interaction between AFc, an antigen binding protein consisting of AHNP linked to the Fc region of an IgG1 antibody, and FcγIIIB was examined for comparative purposes. […] Since FcγIIIB is known to have low affinity to IgG1, the level of affinity observed for AHNP-CH2-mimic is very encouraging. Furthermore, a synthetic CH2-mimic peptide was also observed to compete with the monoclonal antibody 4D5 (IgG1) for binding to the FcγIIIB receptor when analyzed in Biacore experiments. Despite the observed competition for FcγIIIB, direct binding between the CH2-mimic peptide alone and FcγIIIB was not detected, possibly due to the inability for the interaction to be detected by Biacore.

[1] = target: T2, Her2/neu receptor expressed on cells (T6-17 cells; SKBR3 cells) (UniProt P04626 23-1255); assay: FACS on T6-17 cells, 45 min on ice, rabbit anti-His antibody and FITC anti-rabbit antibody
T2 construct: whole, on cells; also called p185 HER2/neu
Experimental: Experiments were conducted to determine whether the ALZ construct (SEQ ID NO. 5) could bind to T6-17 cells, which express the Her2/neu receptor. T6-17 cells were incubated with (dark line) or without (light line) ALZ for 45 min on ice and then with a rabbit anti-His antibody followed by a FITC-labeled anti-rabbit antibody. Other antigen-binding proteins were tested in this manner also.

T1 sequence (O75015 17-200): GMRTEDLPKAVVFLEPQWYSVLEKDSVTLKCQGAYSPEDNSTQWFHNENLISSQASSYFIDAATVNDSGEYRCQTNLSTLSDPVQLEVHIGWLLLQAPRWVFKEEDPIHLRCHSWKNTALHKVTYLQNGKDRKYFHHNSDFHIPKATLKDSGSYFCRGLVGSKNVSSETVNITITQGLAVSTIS

Row | Binder | binding result (FcγIIIB Fc receptor) | binding result [1]
1 | B1 | no binding | 
2 | B2 |  | binds
